Source: PMC10397247

Legend:
4H1222-bN = molecular target: T1, 4H1222-bN; experiment: two-hybrid library CCNG1;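 also: natural log of median RNA to DNA barcode read ratio; higher means stronger binding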
T1 chain: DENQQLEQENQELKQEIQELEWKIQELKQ

4H1338-bN = molecular target: T2, 4H1338-bN; experiment: two-hybrid library CCNG1;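 also: natural log of median RNA to DNA barcode read ratio; higher means stronger binding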
T2 chain: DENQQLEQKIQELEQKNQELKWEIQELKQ

4H1348-bN = molecular target: T3, 4H1348-bN; experiment: two-hybrid library CCNG1;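 also: natural log of median RNA to DNA barcode read ratio; higher means stronger binding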
T3 chain: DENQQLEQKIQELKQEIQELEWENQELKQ

4H1359-bN = molecular target: T4, 4H1359-bN; experiment: two-hybrid library CCNG1;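 also: natural log of median RNA to DNA barcode read ratio; higher means stronger binding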
T4 chain: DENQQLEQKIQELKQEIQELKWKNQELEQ

4H1373-bN = molecular target: T5, 4H1373-bN; experiment: two-hybrid library CCNG1;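 also: natural log of median RNA to DNA barcode read ratio; higher means stronger binding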
T5 chain: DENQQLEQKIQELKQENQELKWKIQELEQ

4H1393-bN = molecular target: T6, 4H1393-bN; experiment: two-hybrid library CCNG1;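 also: natural log of median RNA to DNA barcode read ratio; higher means stronger binding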
T6 chain: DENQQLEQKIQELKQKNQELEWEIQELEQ

4H1449-bN = molecular target: T7, 4H1449-bN; experiment: two-hybrid library CCNG1
T7 chain: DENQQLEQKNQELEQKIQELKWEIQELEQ

4H1544-bN = molecular target: T8, 4H1544-bN; experiment: two-hybrid library CCNG1
T8 chain: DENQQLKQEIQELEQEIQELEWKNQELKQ

4H1629-bN = molecular target: T9, 4H1629-bN; experiment: two-hybrid library CCNG1
T9 chain: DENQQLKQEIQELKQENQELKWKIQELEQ

4H1710-bN = molecular target: T10, 4H1710-bN; experiment: two-hybrid library CCNG1
T10 chain: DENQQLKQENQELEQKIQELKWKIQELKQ

4H1804-bN = molecular target: T11, 4H1804-bN; experiment: two-hybrid library CCNG1
T11 chain: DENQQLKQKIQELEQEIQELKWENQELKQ

4H1899-bN = molecular target: T12, 4H1899-bN; experiment: two-hybrid library CCNG1
T12 chain: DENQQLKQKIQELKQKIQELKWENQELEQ

4H1985-bN = molecular target: T13, 4H1985-bN; experiment: two-hybrid library CCNG1
T13 chain: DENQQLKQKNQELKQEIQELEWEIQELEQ

4H3129-bN = molecular target: T14, 4H3129-bN; experiment: two-hybrid library CCNG1
T14 chain: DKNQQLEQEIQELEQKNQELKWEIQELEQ

4H3172-bN = molecular target: T15, 4H3172-bN; experiment: two-hybrid library CCNG1
T15 chain: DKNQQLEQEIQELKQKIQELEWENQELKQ

4H3414-bN = molecular target: T16, 4H3414-bN; experiment: two-hybrid library CCNG1
T16 chain: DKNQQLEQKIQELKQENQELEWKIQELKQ

4H3613-bN = molecular target: T17, 4H3613-bN; experiment: two-hybrid library CCNG1
T17 chain: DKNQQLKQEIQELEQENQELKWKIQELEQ

4H3628-bN = molecular target: T18, 4H3628-bN; experiment: two-hybrid library CCNG1
T18 chain: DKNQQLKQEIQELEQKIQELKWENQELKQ

4H363-bN = molecular target: T19, 4H363-bN; experiment: two-hybrid library CCNG1
T19 chain: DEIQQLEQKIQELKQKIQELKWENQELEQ

4H3631-bN = molecular target: T20, 4H3631-bN; experiment: two-hybrid library CCNG1
T20 chain: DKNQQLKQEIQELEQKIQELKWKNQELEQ

4H3638-bN = molecular target: T21, 4H3638-bN; experiment: two-hybrid library CCNG1
T21 chain: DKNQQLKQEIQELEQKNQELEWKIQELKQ

4H3817-bA = molecular target: T22, 4H3817-bA; experiment: two-hybrid library CCNG1
T22 chain: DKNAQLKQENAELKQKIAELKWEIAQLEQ

4H3817-bN = molecular target: T23, 4H3817-bN; experiment: two-hybrid library CCNG1
T23 chain: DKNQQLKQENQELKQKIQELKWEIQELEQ

4H3858-bN = molecular target: T24, 4H3858-bN; experiment: two-hybrid library CCNG1
T24 chain: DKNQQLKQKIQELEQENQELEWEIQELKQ

4H3926-bN = molecular target: T25, 4H3926-bN; experiment: two-hybrid library CCNG1
T25 chain: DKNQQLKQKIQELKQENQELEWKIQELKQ

4H3974-bN = molecular target: T26, 4H3974-bN; experiment: two-hybrid library CCNG1
T26 chain: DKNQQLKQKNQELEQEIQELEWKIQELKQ

4H570-bN = molecular target: T27, 4H570-bN; experiment: two-hybrid library CCNG1
T27 chain: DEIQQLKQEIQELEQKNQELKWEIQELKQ

4H584-bN = molecular target: T28, 4H584-bN; experiment: two-hybrid library CCNG1
T28 chain: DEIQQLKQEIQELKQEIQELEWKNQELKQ

4H619-bN = molecular target: T29, 4H619-bN; experiment: two-hybrid library CCNG1
T29 chain: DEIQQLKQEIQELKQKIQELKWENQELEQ

4H850-bN = molecular target: T30, 4H850-bN; experiment: two-hybrid library CCNG1
T30 chain: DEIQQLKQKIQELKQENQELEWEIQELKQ

4H906-bN = molecular target: T31, 4H906-bN; experiment: two-hybrid library CCNG1
T31 chain: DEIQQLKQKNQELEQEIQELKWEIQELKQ

O9-bH = molecular target: T32, O9-bH; experiment: two-hybrid library CCNG1
T32 chain: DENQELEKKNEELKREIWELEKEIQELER

Core_INNN-es_KEEE = molecular target: T33, Core_INNN-es_KEEE; experiment: two-hybrid library CCmax; conditions: mean of both orientations
T33 chain: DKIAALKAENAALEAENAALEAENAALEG

DENQQLEQENQELKQEIQELEWKIQELKQ [4H1222-bN]
interaction score (4H1222-bN): -1.63
interaction score (4H1338-bN): 0.344
interaction score (4H1348-bN): -2.2
interaction score (4H1359-bN): 0.554
interaction score (4H1373-bN): -0.0597
interaction score (4H1393-bN): -0.718
interaction score (4H1449-bN): -0.277
interaction score (4H1544-bN): -1.38
interaction score (4H1629-bN): 0.612
interaction score (4H1710-bN): 0.715
interaction score (4H1804-bN): 0.407
interaction score (4H1899-bN): -0.657
interaction score (4H1985-bN): -2.04
interaction score (4H3129-bN): -0.201
interaction score (4H3172-bN): -0.0903
interaction score (4H3414-bN): 0.105
interaction score (4H3613-bN): 0.482
interaction score (4H3628-bN): -0.764
interaction score (4H363-bN): -0.189
interaction score (4H3631-bN): 0.357
interaction score (4H3638-bN): 0.921
interaction score (4H3817-bA): 1.4
interaction score (4H3817-bN): 2.15
interaction score (4H3858-bN): -0.767
interaction score (4H3926-bN): 0.755
interaction score (4H3974-bN): -0.957
interaction score (4H570-bN): -0.0662
interaction score (4H584-bN): -0.959
interaction score (4H619-bN): -0.785
interaction score (4H850-bN): 0.741
interaction score (4H906-bN): -1.3
interaction score (O9-bH): 1.11

DEIAALEAKNAALKAKNAALKAKNAALKG [Core_INNN-es_EKKK]
interaction score (Core_INNN-es_KEEE): 1.79
